For this assay, the target named is Human CD16 (biotinylated, Sino Biological Inc, cat#10389-H27H1-B) (human, UniProt P08637 17-208, biotinylated). Put plainly: ELISA, biotinylated CD16 captured on neutravidin, anti-human Fab-HRP detection. A general note: In an ELISA, binding on a coated surface is turned into a signal by an enzyme label.

A word on the EC50: it is the concentration giving half of the maximal effect. High values mean a less potent agent, low ones a more potent agent.

Chain of Human CD16 (biotinylated, Sino Biological Inc, cat#10389-H27H1-B) (P08637 17-208): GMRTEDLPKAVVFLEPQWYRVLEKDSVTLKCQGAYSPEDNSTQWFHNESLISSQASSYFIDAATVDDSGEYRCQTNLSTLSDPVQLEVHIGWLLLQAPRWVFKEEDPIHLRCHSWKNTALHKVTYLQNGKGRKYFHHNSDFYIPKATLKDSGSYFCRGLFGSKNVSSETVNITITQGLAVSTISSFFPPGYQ

B1: IgG3-MAB1 (antibody)
chain 1: QLLLQESGPGLVKPSETLSLTCTVSGGSLSSSFSYWVWIRQPPGKGLEWIGTIYYSGNTYYNPSLKSRLTISVDTSKNHFSLKLSSVTAADTAVYYCARRAGILTGYLDSWGQGTLVTVSS
chain 2: SYVLTQSPSVSVAPGQTARITCGGNNIGSKSVHWYQQKPGQAPVLVVYDDSDRPSGIPERFSASNSGNTATLTISRVEAGDEADYYCQVWDSSSDHVVFGGGTKLTVL
The molecule B1 had an EC50 of 3.58 µg/mL.

Source of the values: EP2767548A2 (Argen-X B.V., dated 2014).
